Test results from paper PMC6713926, “Structural Basis for Properdin Oligomerization and Convertase Stimulation in the Human Complement System” (Frontiers in Immunology, 2019).

Biological target: T1, FPht, monomeric FP head-tail protein from co-expression of FPh and FPt (human)
T1 construct: properdin (FP), human, TB-TSR3 head fragment (FPh), expressed with the endogenous FP signal peptide; the head fragment of FPc is residues 28-255; properdin (FP), human, TSR4-6 tail fragment (FPt); the tail fragment of FPc is residues 256-469; also called FPht WT; WT FPht
T1 chain 1: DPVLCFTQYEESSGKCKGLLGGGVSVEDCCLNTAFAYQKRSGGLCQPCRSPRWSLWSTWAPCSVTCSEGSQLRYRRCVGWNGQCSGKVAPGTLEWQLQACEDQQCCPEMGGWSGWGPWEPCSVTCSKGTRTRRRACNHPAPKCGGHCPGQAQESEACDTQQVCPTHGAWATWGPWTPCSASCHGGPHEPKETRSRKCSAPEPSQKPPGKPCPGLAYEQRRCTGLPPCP
T1 chain 2: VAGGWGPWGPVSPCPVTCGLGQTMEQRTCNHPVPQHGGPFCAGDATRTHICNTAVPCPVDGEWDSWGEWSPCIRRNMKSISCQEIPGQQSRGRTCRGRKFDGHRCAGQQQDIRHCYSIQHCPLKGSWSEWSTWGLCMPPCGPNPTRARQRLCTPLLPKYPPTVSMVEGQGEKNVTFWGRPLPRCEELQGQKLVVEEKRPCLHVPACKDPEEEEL
Assay: BLI; hFPNb1 amine-coupled on AR2G sensors, FPht (20 μg/mL) loaded on it; C3b, FB variants or C3b + FB at 50 μg/mL each; 30°C; 20 mM MES pH 6.0, 100 mM NaCl, 0.05% Tween, 1 mg/mL BSA, 5 mM MgCl2; FB signal subtracted
Conditions: both partners purified

B1: hFPNb1, FP specific non-inhibitory nanobody (VHH)
VHH: QVQLVESGGGLVQAGGSLRLSCAASERTFTIYAMGWFRQAPGKEREFVAAISRSGENTDYADSVKGRFTISRDNNKNTISLQMNSLKPEDTAVYYCAAGRAILVHTTKKEYDHWGQGTQVTVSS
notes: llama nanobody selected by phage display against FPc
- binding result: binds
